PMC4333420, “REV7 is essential for DNA damage tolerance via two REV3L binding sites in mammalian DNA polymerase ζ” (Nucleic Acids Research, 2015)

Molecular target: T1, His-REV7 (human, UniProt Q9UI95 1-211)
T1 construct: REV7 (MAD2L2), human; amplified from REV7 cDNA with primers from the start codon to the stop codon, cloned into pETDuet-1; Cloned into pETDuet-1 (SalI-NotI); also called His-REV7 fusion protein; source: E. coli, purified
Assay: pull-down; GST-fusion REV3L fragment, His-REV7 and Glutathione-Sepharose 4B beads, 4°C for 4 h in 500 μl of 0.1B; blot with anti-His and anti-GST
Conditions: both partners purified

T1 sequence (Q9UI95 whole entry, the tested form may be a part): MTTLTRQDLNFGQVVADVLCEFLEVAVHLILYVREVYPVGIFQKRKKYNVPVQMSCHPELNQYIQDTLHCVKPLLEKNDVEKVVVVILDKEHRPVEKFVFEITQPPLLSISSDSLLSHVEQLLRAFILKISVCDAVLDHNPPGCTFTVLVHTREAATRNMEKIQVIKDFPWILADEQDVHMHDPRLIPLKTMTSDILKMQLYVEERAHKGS

binding result | Binder
binds | GST-REV3L 1847–1898 (domain or fragment, human, UniProt O60673 1847-1898, looked up, Cloned into pGEX6P-1 (GE Healthcare); also called positive control; source: E. coli, purified) MLTPTPDSSPRSTSSPSQSKNGSFTPRTANILKPLMSPPSREEIMATLLDHD
binds | GST-REV3L 1974–2025 (domain or fragment, human, UniProt O60673 1974-2025, looked up, Cloned into pGEX6P-1 (GE Healthcare); source: E. coli, purified) GVVNKGSSNSPKMVEDKKIVIMPCKCAPSRQLVQVWLQAKEEYERSKKLPKT
